1 substance from article PMC7171158 can be followed below.

The target in the test is NusA-AR2^D443C labeled with fluorescein-5-maleimide (E. coli) (UniProt P0AFF6). Kind of test: fluorescence polarisation; fluorescence anisotropy; 25 nM fluorescein-labeled NusA-AR2^D443C with increasing unlabeled protein; 25 °C; 50 mM Na-P pH 6.5, 100 mM NaCl, 150 mM glucose, 5 mM DTT, 0.05% Tween; two-state binding model. A general note: Polarisation of emitted light reports the rotation of a fluorescent probe.

Regarding “C-terminal domain of the RNA polymerase α subunit (αCTD) (domain or fragment)”, the Kd was determined as 8 µM.

The term Kd denotes the free concentration of one partner at which half of the binding sites on the other are occupied at equilibrium, for simple one-to-one binding.
